According to patent US20040197306A1 (SCHERING, published 2004):

Columns and labels:
Assay in all cases: FACS, FLAG-tagged ligand supernatant on Baf/3 cells with chimeric receptor, anti-FLAG M2 detection
[1] = biological target: T1, mouse IL-17RD (DCRS8) extracellular domain fused to transmembrane and intracellular domains of murine GCSFR, … (mouse, UniProt Q8JZL1 17-299; P40223 627-837, limits assumed)
T1 construct: extracellular domain;domain: transmembrane and intracellular domains; Chimeric receptor stably expressed on Baf/3 cells; also called MuIL-17RX-MuGCSFR (X = D)
T1 sequence (looked up): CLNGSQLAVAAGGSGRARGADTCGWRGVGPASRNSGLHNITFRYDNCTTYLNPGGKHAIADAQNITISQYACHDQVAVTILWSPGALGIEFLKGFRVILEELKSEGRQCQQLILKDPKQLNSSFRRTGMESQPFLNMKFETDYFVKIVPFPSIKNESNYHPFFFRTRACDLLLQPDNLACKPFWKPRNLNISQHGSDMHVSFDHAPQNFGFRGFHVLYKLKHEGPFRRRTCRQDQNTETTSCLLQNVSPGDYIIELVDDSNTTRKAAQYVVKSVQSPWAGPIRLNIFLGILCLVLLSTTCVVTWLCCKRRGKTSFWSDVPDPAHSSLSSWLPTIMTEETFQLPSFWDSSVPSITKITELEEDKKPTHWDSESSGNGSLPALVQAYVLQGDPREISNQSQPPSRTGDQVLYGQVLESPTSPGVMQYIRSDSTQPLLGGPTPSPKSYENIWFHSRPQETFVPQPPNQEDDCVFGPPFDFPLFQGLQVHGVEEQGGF
Method: (§1) FACS analysis was used to determine specific binding of the various ligands to the various receptors. Baf/3 or Baf/3 mouse IL17RX-mouse GCSFR cells were incubated with ligand containing cell supernatants for one hour on ice. The cells were then washed once in FACS buffer and resuspended in 10 μg/ml ANTI-FLAG® M2 antibody (Sigma, St. Louis, Mo.) for one hour on ice. Cells were washed once in FACS buffer and resuspended in 10 μl/ml anti-mouse IgG-PE (Jackson ImmunoResearch, West Grove, Pa.) for 30 minutes on ice. Cells were washed once in FACS buffer and resuspended in FACS buffer and 1 μl/ml propidium iodide (Roche Applied Science, Indianapolis, Ind.) and analyzed on a FACS Calibur (Becton Dickinson, San Jose, Calif.). The chimeric receptor cell based assay was used to visualize the binding of each of the IL-17 family ligands to the receptors by FACS.

[2] = biological target: T2, mouse IL-17RA extracellular domain fused to transmembrane and intracellular domains of murine GCSFR, on Baf/3 … (mouse, UniProt Q60943 32-322; P40223 627-837, limits assumed)
T2 construct: extracellular domain;domain: transmembrane and intracellular domains; Chimeric receptor stably expressed on Baf/3 cells; also called MuIL-17RX-MuGCSFR (X = A)
Method: as §1

[3] = biological target: T3, mouse IL-17RC (DCRS7) extracellular domain fused to transmembrane and intracellular domains of murine GCSFR, … (mouse, UniProt P40223 627-837, limits assumed)
T3 construct: domain: transmembrane and intracellular domains; Chimeric receptor stably expressed on Baf/3 cells; also called MuIL-17RX-MuGCSFR (X = C)
T3 sequence: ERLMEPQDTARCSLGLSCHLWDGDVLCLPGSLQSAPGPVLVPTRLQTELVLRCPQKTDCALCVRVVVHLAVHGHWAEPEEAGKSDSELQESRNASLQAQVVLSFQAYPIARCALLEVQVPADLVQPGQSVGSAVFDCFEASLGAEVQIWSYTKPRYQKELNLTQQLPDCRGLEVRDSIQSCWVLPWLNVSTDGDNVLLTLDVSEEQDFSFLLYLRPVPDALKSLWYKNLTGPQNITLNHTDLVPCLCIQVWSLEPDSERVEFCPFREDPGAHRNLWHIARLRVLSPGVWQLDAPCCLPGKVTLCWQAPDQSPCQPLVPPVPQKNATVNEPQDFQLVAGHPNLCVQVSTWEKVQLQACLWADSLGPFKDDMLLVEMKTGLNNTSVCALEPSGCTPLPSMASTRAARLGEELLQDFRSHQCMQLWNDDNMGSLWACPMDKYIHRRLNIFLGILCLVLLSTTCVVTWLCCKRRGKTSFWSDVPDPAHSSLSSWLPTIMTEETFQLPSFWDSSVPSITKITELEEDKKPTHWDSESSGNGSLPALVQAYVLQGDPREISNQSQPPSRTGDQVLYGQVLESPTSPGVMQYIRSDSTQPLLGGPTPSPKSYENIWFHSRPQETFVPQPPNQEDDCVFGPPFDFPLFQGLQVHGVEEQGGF
Method: as §1

binding result [1]: no binding | binding result [2]: no binding | binding result [3]: no binding
B1: FLAG-tagged IL-17C (ligand)
chain: HHDPSLRGHPHSHGTPHCYSAEELPLGQAPPHLLARGAKWGQALPVALVSSLEAASHRGRHERPSATTQCPVLRPEEVLEADTHQRSISPWRYRVDTDEDRYPQKLAFAECLCRGCIDARTGRETAALNSVRLLQSLLVLRRRPCSRDGSGLPTPGAFAFHTEFIHVPVGCTCVLPRSV
notes: Used as supernatant of transfected 293T cells; also called IL-71; not shown: FLAG peptide tag at the N-terminus (after the pre-protrypsin leader)
